Data: US12655405B2, “Sequence specific degradation of single-stranded polynucleotides with CARD1 nuclease” (The Rockefeller University, priority 2020, dated 2026)

Legend:
[1] = test system: circular ΦX174 and M13 ssDNA; assay: In vitro DNA cleavage assay, agarose gel; type: biochemical
Protocol: (§1) The reactions were done in a reaction buffer (20 mM Tris-HCl, pH 7.5, 150 mM NaCl, 1 mM DTT, and 5 mM MnCl2, unless otherwise stated, with 250 nM CARD1 and 2.5 uM of cA4, with 2 μg M13 ssDNA (NEB) (FIG. 1b), 500 ng of non-linearized and linearized ΦX174 dsDNA (NEB) (FIGS. 1d, e, respectively) and 2 μg ΦX174 ssDNA (NEB) (FIG. 1a). cA4 and cA6 was obtained from Biolog Life Science Institute GmbH & Co. KG (Bremen, Germany). The reaction products were visualized by agarose gel electrophoresis. For the RNA oligo cleavage assay, 250 nM of a Cy3-labelled RNA oligo was added to the reaction. The reaction products were run on Mini-PROTEAN TBE-Urea precast gel (Bio-Rad), and visualized on a TYPHOON IMAGE SCANNER. For degradation of ssRNA or dsRNA ladders, 1 ug of either ssRNA ladder (NEB) or dsRNA ladder (NEB) was digested. The reaction products were visualized by agarose gel electrophoresis. At the indicated timepoints, all reaction were stopped by the addition of 25 mM of EDTA.

[2] = test system: ΦX174 ssDNA; assay: Next-generation sequencing of ssDNA degradation products (ΦX174); type: biochemical
Protocol: To assess the ssDNA cleavage patterns of CARD1, 2 ug of ΦX174 virion DNA (New England Biolabs) or M13 ssDNA (M13mp18) (New England Biolabs) was first digested by 250 nM CARD1 with 2.5 uM of cA4 in a buffer consisting of 20 mM Tris pH 7.5, 150 mM NaCl, 1 mM DTT, and 5 mM MnCl2. At the specified time points, the reaction was quenched by adding 25 mM of EDTA. Half the reaction was visualized by agarose gel electrophoresis. The remaining digestion products from the 2 hour timepoint were purified by phenol chloroform extraction.
Without further fragmentation, the purified digested DNA was subjected to the Accel-NGS 1S Plus DNA Library Kit (Swift Biosciences), proceeding according to the manufacturer's protocol, using a 1.5× ratio of magnetic beads (AMPure XP beads by Beckman Coulter) to also include small DNA fragments. One of the library preparation steps involves the addition of on average 8 nucleotides to the 3′ end of the DNA. The 5′ end of the input DNA molecules remains unchanged. Paired-end sequencing was performed on an Illumina MiSeq. The 5′ end of each read R1 represents the start of a DNA molecule, and thus a CARD1 cut site. Using a custom python script, the location of 7,020,067 ΦX174 reads (mapping to Genbank reference NC_001422) and 7,670,616 M13 reads (mapping to Genbank reference X02513) was determined. To account for reads mapping at the circular junctions, 65 nucleotides of the first 5′ end of the maps were copied and added at the 3′ end of the maps. The DNA sequence 20 nucleotides upstream and downstream of the cut sites was extracted using a custom Python script, and the CARD1 cleavage motifs for ΦX174 and the M13 were determined separately using Weblogo3 (38), with basal nucleotide compositions determined by the compositions in each map (ΦX174 with A:24.0, C:21.4, G:23.3, T:31.3, and M13 with A:24.4, C:21.1, G:21.1, T:33.4). For the fragment size analysis, 8 nucleotides were removed from all the reads from the 3′ end pair mate by the “Trim Ends” option in the Geneious Bioinformatics Software platform (39). Using the STAR aligner (version 2.7.3) (40), 7,505,136 reads were successfully mapped to ΦX174, and 8,179,356 reads were successfully mapped to M13, using default arguments with the addition of --alignIntronMax 1 --alignMatesGapMax 6000 --peOverlapNbasesMin 5 --alignEndsProtrude 10 ConcordantPair.

[3] = test system: ssRNA ladder, dsRNA ladder; assay: Degradation of ssRNA or dsRNA ladders; type: biochemical; settings: 15 minutes
Protocol: as §1

[4] = test system: recA, lexA, uvrA and umuC transcripts; assay: RT-qPCR of SOS-induced genes; type: cell-based, Staphylococcus aureus RN4220; settings: after aTc induction; compared to d-CARD1; cells expressing Cas10HD
Protocol: Cells carrying pTarget and a pCRISPR containing either CARD1 or dCARD1 were grown overnight in triplicate, diluted 1/100 into fresh BHI with 10 ug/ml of chloramphenicol and outgrown for an hour. The cells were then diluted to an OD of 0.1. To induce targeting, aTc was added to a final concentration of 250 ng/ml. The cells were incubated with shaking for 20 minutes before being spun down at 6000×g for 5 minutes, and then lysed in PBS with 1 mg/ml of lysostaphin and 2 mg/ml of lysozyme for 10 minutes at 37° C. RNA was purified using Direct-zol RNA miniprep kit (Zymo Research) according to the manufacturer's protocol, followed by DNA depletion using TURBO DNA-free kit (Invitrogen) according to the manufacturer's protocol. To produce cDNA, approximately 2 ug of DNA-depleted RNA was treated using the SuperScript IV Reverse Transcriptase kit (Invitrogen) according to the manufacturer's protocol and random hexamer primers. The RT-qPCR reaction was performed using Fast SYBR Green Master Mix (Life Technologies) with an input of about 100 ng cDNA, in biological triplicate, using […] of each primer, on a QuantStudio 3 qPCR machine (Thermo Fisher). The housekeeping gene rho was used as an internal normalization control (37).

[5] = test system: S. aureus viability; assay: CARD1 toxicity assay (cfu enumeration); type: cell-based, Staphylococcus aureus
Protocol: To measure the effect of CARD1 activity on S. aureus viability over time, colonies of S. aureus harbouring pTarget and the specified pCRISPR were launched in liquid culture overnight in triplicate. The next day, cells were diluted 1:100 and grown out for about an hour, and normalized for OD. One aliquot was taken from each culture, and then aTc was added to induce CRISPR targeting and CARD1 activity (to a concentration of 3 ng/ml in FIG. 4c or 125 ng/ml in FIG. 5c). At each timepoint, cell aliquots were removed, centrifuged, resuspended in media lacking aTc, and serial dilutions were plated on solid BHI agar plates with or without aTc. All viable cells should grow on the solid agar plates, but only targeting escapers (cells that recover due to mutations in pTarget or pCRISPR) should form CFUs on plates with aTc.

B1: CARD1: cA4-activated ssDNA and ssRNA nuclease of Treponema succinifaciens, SEQ ID NO:1; N-terminal CARF domain, C-terminal REase domain (protein, listed as Treponema succinifaciens)
chain: MKETILVNLVSEQTIPNVQFIKWYFNKKQTPMKILLVSTKEMEQKEKSLFIKNALHFSDSFVEWETIHTDGNDISKTENILTDYFRDNEYKNIIVNITGGTKIMSLAAFDFFNNKPNTEIFYQPIGKELQELYPNKQKYDMFEVLSLKEYLDAHGISYKYDNECVKDWNYNKTVYDLCVADNRELIKGMIALQNNSYFNNVYKRKDFLDFTQIEEEKFIAINHPAATKENMIKILQIFGFDVSRIEHKHIRYITGGWFEEYVYQKICNEYHNVDEKNVALNVTIQKGNDKNELDVIYLDKDNKLHVIECKSFVDGNEGNRVLNDALYKLQAIIKSKFGLYVKQHLYTKSIIEKETPLNRAKEFGIDIKDGTQL
nuclease activity on ssDNA ([1]; ΦX174 and M13 ssDNA, smear of products): cA4-activated, non-specific ssDNA nuclease
cation requirement of ssDNA degradation ([1]; ΦX174 ssDNA, with or without MnCl2): required the addition of Mn cation
average product size ([2]; stated for both ΦX174 and M13 ssDNA degradation products): ~150 nucleotides
cleavage site preference ([2]; stated for both ΦX174 and M13 ssDNA degradation products, WebLogo): preferentially upstream of T(A/G) sites
cuts that occur at the 25 most frequent positions ([2]; ΦX174, 5′ end mapping, 2 hours timepoint): 26.7%
average fragment length of degradation products ([2]; ΦX174, 2 hours timepoint): 163.6 nucleotides
degradation of single-stranded versus double-stranded RNA [3]: Single-stranded RNA, but not double-stranded RNA, was degraded
expression of recA, lexA, uvrA and umuC (SOS response), normalized against rho [4]: significant increase
fraction of colonies formed in the absence of aTc that come from bona fide dormant cells ([5]; compared with colonies resistant to aTc (escapers)): approximately half
colony counts (viable cells) after CARD1 induction ([5]; three hours of target transcription, plated on media lacking aTc): initial decrease in colony counts of an order of magnitude
